Consider 1 substance from paper doi:10.1101/2020.12.15.408237.

The target of the experiment is Staphylococcus aureus FrmB (Staphylococcus aureus Newman). The experiment can be described thus: SEC. (Size exclusion chromatography separates by hydrodynamic size, large species first.)

Broadly, the stoichiometry N is a count of units in the complex or per binding partner. For the substance Staphylococcus aureus FrmB (enzyme), the stoichiometry N worked out at 2.
